# Patent publication US20200147199A1 (published 2020)
# Target: ZIKV E Domain III (ZEDIII), polyhistidine-AviTag, produced in HEK-293-6E cells
# Experiment: ELISA
row,Binder,EC50 [µg/mL]
1,"Z039 (antibody, V domains shown) VH: EVQLLESGGGLVQPGGSLRLSCAASGYIFDNYAMSWVRQAPGKGLEWVSYINGGGYGTDYADSVKGRFTISRDNSKRILYLQMNSLRVGDTAVYYCAKSPYVGGYGLPGDSWGQGTLVTVSS VL: EIVLTQSPGTLSLSPGERATLSCRASQTIFFNYLAWYQKKPGQAPRLLVHGASTRATGIPDRFSGSGSGTDFTLTINSLDPEDFAVYYCQQYGDSPPTFGGGTKVEIK",0.0885
2,"Z024 (antibody, V domains shown) VH: EVQLVQSGAEVRKPGESLRISCKTSGYTFTSHWVAWVRQMPGKGLEWMGIIYPGDSDTRYSPSFQGQISISADKSINTAYLQWSSLKASDTGIYYCARHDGRGYCSPTRCFFSGMDVWGQGTTVTVSS VL: DIQLTQSPSSLSASVGDRVTITCRASQSISNYLNWYQQKPGKAPNLLIYAASSLQSGVPSRFSGSGSGTDFTLTISSLQPEDYAIYYCQQTDRTPLTFGQGTKVEIK",> 4
3,"Z018 (antibody, V domains shown) VH: QVQLVQSGPGVKKPGASVKVSCKASGYIFSDYYILWVRQAPGQGLEYMGWMNPISGFTHYAQNFQGRVTMTRDTSISTAYMELTRLASDDTAVYYCARGGRINSPLGFDPWGQGTLVTVSS VL: EIVLTQSPATLSLSPGERATLSCRASQSISTFSLAWYQQKFGQAPRLLIYGASSRATGIPDRFSGSGSGTDFTLTISRLEPEDFAVYYCQQYVSSPLTFGGGTKVEIK",0.0742
4,"Z038 (BRA12_2) (antibody, V domains shown) VH: EVQLLESGGGLVQPGGSLRLSCEASGFTFSNYAMNWVRQAPGKGLEWVSTLGATDNSGDSTYYVESAKGRFTISRDNSKNTLYLQMNSLRVEDTAVYFCAKDRTGNIGAGTGYFDKWGQGTLVTVSS VL: DIQMTQSPSTLSASVGDRVTITCRASHRISGWLAWYQQKPGKAPKLLIYQASGLESGVPSRFSGSGYGTEFTLTISSLQADDFATYYCQQYNNYPWTFGQGTKVEIK",0.0581
5,"Z004 (MEX18_89) (antibody, V domains shown) VH: EVQLLESGGGLVQPGGSLRLTCATSGFTFRDYAMSWVRQAPGKGLEWVSSYSGIDDSTYYADSVKGRFTISRDNSKSTLSLHMNSLRAEDSALYFCAKDRGPRGVGELFDSWGQGTLVTVSS VL: DIQMTQSPSTLSASVGDRVTITCRASQSISKWLAWYQQKPGKAPKLLIYTTSTLKSGVPSRFSGSGSGTEFTLTISSLQPDDFATYYCQHFYSVPWTFGQGTKVEIK",0.0237
6,"Z001 (MEX18_21) (antibody, V domains shown) VH: EVQLLESGGGLVQPGGSRRLSCATSGFSFDTYAMSWLRQAPGKGLEWVSSFSGLDDSTYYADSVKGRFTISRDNSKNTLYLQMNSLRAEDTAIYYCAKDRGPRGIGELFDFWGQGTLVTVSS VL: DIQMTQSPSTLSASVGDRVTITCRASQSISRWLAWYQQKPGKAPKLLIYKTSTLKSEVPSRFSGSGSGTEFTLTISSLQPDDFATYYCQHFHSVPWTFGQGTKVEIK",0.0206
7,"Z028 (MEX84_p4-53) (antibody, V domains shown) VH: EVQLLESGGGLVQPGGSLRLSCAASGFTFSAYAMSWVRQAPGKGLEWVSSINGHSDSTYFADSVKGRFTISRDNSKNTLYLQMNSLRAEDTALYYCAKDRLREGIGELFHSWGQGTLVTVSS VL: DIQMTQSPSTLSASIGDRVTITCRASQSITPWLAWYQQKPGKAPKFLIYQTSILESGVPSRFSGSGSGTEFTLTISSLQPDDFATYYCQHYHSYPWTFGQGTKVEIK",0.0371
8,"Z006 (MEX105_42) (antibody, V domains shown) VH: EVQLLESGGGLVQPGGSLRLSCAASGFTFKNYAMAWVRQAPGKGLEWVSLLYNSEESTYYADSVKGRFTISRDNSKNTLFLQMNRLRVEDTAVYFCVRDRSNGWSSINLWGRGTLVTVSS VL: DIQMTQSPSTLSASVGDRVTMTCRASQTISGWLAWYQQKPGKAPKLLIYQASRLESGIPSRFSGSGSGTEFTLTISSLQPDDVATYYCQQYSTFWTFGLGTKVEIK",0.0351
9,"Z010 (MEX105_88) (antibody, V domains shown) VH: EVQLLESGGGLVQPGGSLRLSCAASGFTFSNYAMAWVRQAPGKGLEWVSLIYSGDDSTYYADFVKGRFTISRHNSKNTLSLQMNSLRAEDTAIYYCVKDRGTGWSSIVHWGQGTLVTVSS VL: DIQMTQSPSTLSASVGDRVTITCRASQTISNWLAWYQQKPGKAPKLLIYQASSLESGVPSRFSGSGSGTEFTLTISSLQPDDFATYYCQQYSTYWTFGQGTKVEIK",> 0.4
10,"Z031 (BRA112_46) (antibody, V domains shown) VH: EVQLLESGGGLVQPGGSLRLSCVASGFTFGSYGMAWVRQAPGKGLEWISSISSIDPSTYYADSVKGRFTVSRDNSENTLYLHMSSLKVEDTAVYFCAKDRLNGGFGELFASWGQGTLVTVSS VL: DIQMTQSPSTLSASVGDSVTITCRASQSISSWLAWYQQKPGKAPKFLIHKASSLESGIPSRFSGSGSGTEFTLTINNLQPDDFATYYCQHYHSYPWTFGQGTKVEIK",0.0341
11,"Z021 (MEX84_p4-23) (antibody, V domains shown) VH: QVQLQESGPGLVKPSETLSLTCTVSGGSIDTYYWSWIRQTPGKGLEWIGCFYYSVDNHFNPSLESRVTISVDTSKNQFSLKMTSMTASDTAVYYCARNQPGGRAFDYWGPGTLVTVSS VL: EIVLTQSPATLSLSPGQRATLSCRASQSVSNYFAWYQQKPGQAPRLLIYDTSKRATGTPARFSGSGSGTDFTLTISSLEPEDFAVYYCQERNNWPLTWTFGLGTKVEIK",0.0554
12,"Z042 (antibody, V domains shown) VH: QVQLQESGPGLVKPSETLSLSCTVSSGSISNYYWNWIRQPPGKGLEWIGYIYYSGSISYNPSLKSRVTISVDTSKNQLSLKLNSVTAADTAVYYCARGPDNRYWGQGTLVTVSS VL: EIVMTQSPATLSVSPGERVTLSCRASQSVSYNLAWHQQKPGQAPRLLIYGASTRATGIPARFSGSGSGTEFTLTISNMQSEDFAVYYCQQYNNWPPVFTFGPGTKVDIK",0.0586
13,"Z014 (antibody, V domains shown) VH: EVQLLESGGDLVQPGGSLRLSCAASGFTFSSYGMSWVRQAPGKGLEWVSSISGFDPSTYYADSVRGRFTIARDNSKNTLYLQMKSLRVEDTAIYYCAKDRLVRGFGEVLDSWGQGTLVTVSS VL: DIQMTQSPSSLSASVGDRVTITCRASQGISNYLAWYQQKPREVPKLLIYAASTLHSGVPSRFSGSGSGTDFTLTISGLQPEDVATYYCQKYNSVPWTFGQGTKVEIK",0.106
14,"Z037 (antibody, V domains shown) VH: QVQLQESGPGLVKPSETLSLTCSVSGYFISSGHYWGWIRQSPGKGLEWIASIYQSGSKFQTGNTYYNPSLESRVTISMDTSKNQFSLKLSSVTAADTAVYFCARDARSRSWDRTGFFGPWGQGILVTVSS VL: EIVLTQSPGTLSLSPGERATLSCRASQSLSSSFLAWYQQKPGQSPRLLIYGTSSRDTGIPDRFSGSGSGTDFTLTISRLEPEDSAVYYCQQYGSSWGTFGQGTKLEIK",> 0.4
15,"Z012 (antibody, V domains shown) VH: QVQLVQSGAEVKKSGASVKVSCKASGYSFTTNYIHWVRQAPGQGPEWMGIINPRGGSTTYAQKFQGRVLMTSDTSTSTVYMELSSLRSEDRAVYYCARGKNHQTTVAVLSWYYGMDVWGQGTTVTVSS VL: DIQMTQSPSSVSASVGDRVTITCRASQGISSWLAWYQQKPGKAPKLLISAASSLQSGVPSRFSGSGSGTDFTLTISNLQPEDFATYFCQQANSFPYTFGQGTKLEIK",0.2
16,"Z035 (BRA112_71) (antibody, V domains shown) VH: EVQLLESGGGLIQPGGSLRLSCAASGFTFSSYAMSWVRQAPGKGLEWVSGISGSGGASDNGASRYYADSVKGRFSISRDNSKNTVYLQMNSLRAEDTAVYYCAKDRLSGGFGELFQKWGQGTLVTVSS VL: DIQMTQSPSTLAASVGDRVTITCRASQNINSWLAWYQQKPGKAPKFLIYKASTLESGAPSRFSGSGSGTEFTLTISSLQPDDFATYYCQHYYSYPYTFGQGTKVEIK",0.0284
17,"Z043 (antibody, V domains shown) VH: QVQLVQSGAEVKKPGASVKVSCKTSGYTFTSYYMNWVRQAPGQGLEWMGIIKPSDGSTNYAQKFQGRVTMTRDTSTSTVYMELRSLRSEDTAVYYCGRDSKGWLQLRGDIDYWGQGTLVTVSS VL: QSALTQPASVSGSPGQSITISCAGTSSDVGNYNLVSWYQQHPGKAPKLLIYEVSKRPSGVSNRFSGSKSGNTASLTISGLQAEDEADYYCCSYAGSSTYVFGTGTEVTVL",0.188
18,"Z041 (antibody, V domains shown) VH: QVQLVQSGAEVKKPGSSVRLSCKASGGSYSTYAISWVRQAPGQGLEWMGRIIPSLGKTHLAQKFQGRVTFTADESTTTVYMILSSLKSEDTALYYCATPDWQYSSAYSLDHWGQGTLVTVSS VL: not shown",0.218
